Where a chain is given by its changes, count along the chain named. Blank lines part the entries; values can stand above or below the binder they belong to.
Key:
[1] = molecular target: T1, human HER3 endogenously expressed on human cancer cells (SK-Br-3, BT-474, MCF7) (human, UniProt P21860 20-1342); experiment: cell-based or functional assay
[2] = molecular target: T2, Hu HER3: CD33-[Human HER3, residues 20-640]-TAG (human, UniProt P21860 20-640); experiment: solution equilibrium titration (SET), IgG, ECL read-out
T2 construct: also called hu HER3-Tag; HER3-Tag; not shown: C-terminal TAG (e.g. FLAG TAG)

[3] = molecular target: T1, human HER3 endogenously expressed on …; experiment: cell-based or functional assay; remark: listed apart in the source
[4] = molecular target: T1, human HER3 endogenously expressed on …; experiment: cell-based or functional assay; remark: listed apart in the source
[5] = molecular target: T3, Cyno HER3: CD33-[Cyno HER3, residues 20-643]-TAG (cynomolgus monkey, UniProt G7PIG5 20-643); experiment: solution equilibrium titration (SET), IgG, ECL read-out
T3 construct: also called cy HER3-Tag; not shown: C-terminal TAG (e.g. FLAG TAG)

[6] = molecular target: T4, Mu HER3: CD33-[Murine HER3, residues 20-643]-TAG (mouse, UniProt Q61526 20-643); experiment: as above
T4 construct: also called mu HER3-Tag; not shown: C-terminal TAG (e.g. FLAG TAG)

[7] = molecular target: T5, Rat HER3: CD33-[Rat HER3, residues 20-643]-TAG (rat, UniProt Q62799 20-643); experiment: as above
T5 construct: also called ra HER3-Tag; not shown: C-terminal TAG (e.g. FLAG TAG)

B2: MOR13666 (antibody, human IgG1, lambda, V domains shown)
VH: QVQLVQSGAEVKKPGASVKVSCKASGYTFTSYDIHWVRQAPGQGLEWMGRIDPYSGNTNYAQKFQGRVTMTRDTSISTAYMELSRLRSEDTAVYYCARGSFYTRDSYFDVWGQGTLVTVSS
VL: DIALTQPASVSGSPGQSITISCTGTSSDVGTYNQVSWYQQHPGKAPKLMIYGVSKRPSGVSNRFSGSKSGNTASLTISGLQAEDEADYYCSTTTYSFHMVFGGGTKLTVLG
notes: Tested as IgG
BT-474 pAkt % inhibition [1]: 50% | BT-474 pAkt IC50 [1]: 275 pM | MCF7 pAkt % inhibition [1]: 72% | MCF7 pAkt IC50 [1]: 49 pM | SK-Br-3 pAkt % inhibition [1]: 90% | SK-Br-3 pAkt IC50 [1]: 78 pM | Kd [2]: 150 pM | BT474 pHER3 % inhibition [3]: 65% | BT474 pHER3 IC50 [3]: 420 pM | MCF7 pHER3 % inhibition [3]: 73% | MCF7 pHER3 IC50 [3]: 168 pM | SK-Br-3 pHER3 % inhibition [3]: 69% | SK-Br-3 pHER3 IC50 [3]: 166 pM | BT-474 proliferation % inhibition [4]: 31% | BT-474 proliferation IC50 [4]: 1120 pM | SK-Br-3 proliferation % inhibition [4]: 39% | SK-Br-3 proliferation IC50 [4]: 870 pM

B4: MOR12515 (antibody, human IgG1, lambda, V domains shown)
VH: B2 VH
VL: B2 VL with S91Y, T92S, T93R, T94D, Y95S, S96P, F97M, H98D, M99Q
notes: Tested as IgG
Kd [2]: 870 pM | Kd [5]: 720 pM | Kd [6]: 1500 pM | BT474 pHER3 % inhibition [3]: 71% | BT474 pHER3 IC50 [3]: 365 pM | MCF7 pHER3 % inhibition [3]: 71% | MCF7 pHER3 IC50 [3]: 674 pM | SK-Br-3 pHER3 % inhibition [3]: 76% | SK-Br-3 pHER3 IC50 [3]: 278 pM | MCF7 proliferation % inhibition [4]: 26% | MCF7 proliferation IC50 [4]: 1090 pM | SK-Br-3 proliferation % inhibition [4]: 36% | SK-Br-3 proliferation IC50 [4]: 278 pM

B5: MOR12921 (antibody, human IgG1, lambda, V domains shown)
VH: B2 VH with S31G, D33Y, I34M, R50D, Y54H, T58A, N59V
VL: B2 VL with T92S, T93R, T94D, Y95L, S96I, F97G, M99Y
notes: Tested as IgG
Kd [2]: 150 pM | Kd [7]: 690 pM | Kd [5]: 600 pM | Kd [6]: 560 pM | BT474 pHER3 % inhibition [3]: 65% | BT474 pHER3 IC50 [3]: 418 pM | MCF7 pHER3 % inhibition [3]: 79% | MCF7 pHER3 IC50 [3]: 1230 pM | SK-Br-3 pHER3 % inhibition [3]: 68% | SK-Br-3 pHER3 IC50 [3]: 252 pM | MCF7 proliferation % inhibition [4]: 31% | MCF7 proliferation IC50 [4]: 2310 pM | SK-Br-3 proliferation % inhibition [4]: 42% | SK-Br-3 proliferation IC50 [4]: 432 pM

B6: MOR12603 (antibody, human IgG1, kappa, V domains shown)
VH: QVQLVQSGAEVKKPGSSVKVSCKASGGTFSSYAISWVRQAPGQGLEWMGLIIPRYGKARYAQKFQGRVTITADESTSTAYMELSSLRSEDTAVYYCARNWPYYYMDFWGQGTLVTVSS
VL: DIVLTQSPATLSLSPGERATLSCRASQNIVFNLAWYQQKPGQAPRLLIYDASNRATGVPARFSGSGSGTDFTLTISSLEPEDFAVYYCQQTKNRPPTFGQGTKVEIKR
notes: Tested as IgG
BT-474 pAkt % inhibition [1]: 77% | BT-474 pAkt IC50 [1]: 137 pM | SK-Br-3 pAkt % inhibition [1]: 84% | SK-Br-3 pAkt IC50 [1]: 17 pM | Kd [2]: 2000 pM | Kd [7]: 11000 pM | Kd [5]: 6100 pM | Kd [6]: 4100 pM | BT474 pHER3 % inhibition [3]: 70% | BT474 pHER3 IC50 [3]: 79 pM | MCF7 pHER3 % inhibition [3]: 77% | MCF7 pHER3 IC50 [3]: 11 pM | SK-Br-3 pHER3 % inhibition [3]: 74% | SK-Br-3 pHER3 IC50 [3]: 18 pM | BT-474 proliferation % inhibition [4]: 37% | BT-474 proliferation IC50 [4]: 136 pM | MCF7 proliferation % inhibition [4]: 44% | MCF7 proliferation IC50 [4]: 58 pM | SK-Br-3 proliferation % inhibition [4]: 36% | SK-Br-3 proliferation IC50 [4]: 34 pM

These reach a lower Kd [2]. Values come first.

BT-474 pAkt % inhibition [1]: 58% | BT-474 pAkt IC50 [1]: 142 pM | MCF7 pAkt % inhibition [1]: 72% | MCF7 pAkt IC50 [1]: 244 pM | SK-Br-3 pAkt % inhibition [1]: 92% | SK-Br-3 pAkt IC50 [1]: 89 pM | Kd [2]: 110 pM | BT474 pHER3 % inhibition [3]: 61% | BT474 pHER3 IC50 [3]: 195 pM | MCF7 pHER3 % inhibition [3]: 77% | MCF7 pHER3 IC50 [3]: 331 pM | SK-Br-3 pHER3 % inhibition [3]: 69% | SK-Br-3 pHER3 IC50 [3]: 182 pM | BT-474 proliferation % inhibition [4]: 27% | BT-474 proliferation IC50 [4]: 632 pM | SK-Br-3 proliferation % inhibition [4]: 34% | SK-Br-3 proliferation IC50 [4]: 136 pM
B1: MOR13654 (antibody, human IgG1, lambda, V domains shown)
VH: B2 VH
VL: DIALTQPASVSGSPGQSITISCTGTSSDVGTYNQVSWYQQHPGKAPKLMIYGVSKRPSGVSNRFSGSKSGNTASLTISGLQAEDEADYYCQSRGEYRPGWVFGGGTKLTVLG
notes: Tested as IgG

BT-474 pAkt % inhibition [1]: 56% | BT-474 pAkt IC50 [1]: 461 pM | MCF7 pAkt % inhibition [1]: 81% | MCF7 pAkt IC50 [1]: 341 pM | SK-Br-3 pAkt % inhibition [1]: 92% | SK-Br-3 pAkt IC50 [1]: 172 pM | Kd [2]: 27 pM | BT474 pHER3 % inhibition [3]: 67% | BT474 pHER3 IC50 [3]: 571 pM | MCF7 pHER3 % inhibition [3]: 83% | MCF7 pHER3 IC50 [3]: 459 pM | SK-Br-3 pHER3 % inhibition [3]: 74% | SK-Br-3 pHER3 IC50 [3]: 347 pM | BT-474 proliferation % inhibition [4]: 34% | BT-474 proliferation IC50 [4]: 423 pM | MCF7 proliferation % inhibition [4]: 49% | MCF7 proliferation IC50 [4]: 174 pM | SK-Br-3 proliferation % inhibition [4]: 42% | SK-Br-3 proliferation IC50 [4]: 191 pM
B3: MOR13658 (antibody, human IgG1, lambda, V domains shown)
VH: B2 VH
VL: B2 VL with S91A, T92S, T93A, T94D, Y95H, F97Y, M99T
notes: Tested as IgG

— patent US20130251703A1 (Novartis, published 2013)
